Data taken from publication PMC10991935.

Test system: PsPIWI-RE (Pseudomonas stutzeri DSM 4166)
Experiment: fluorescence polarization
Conditions: 5' phosphate; FP: 20 mM Tris-HCl pH 7.5, 250 mM NaCl, 5 mM MgCl2, 5 nM oligo, 37 C, 30 min; EMSA: 20 mM Tris-HCl pH 8.0, 150 mM NaCl, 2 mM DTT, 5 mM MgCl2, 1 uM oligo, 1-3 uM

Compared with “UGAGGUAGUAGGUUGUAUAGU [5'P-RNA (5'U) 21-nt guide]”, “TGAGGTAGTAGGTTGTATAGT [5'P-DNA (5'T) 21-nt guide]” is 2.6-fold lower in Kd: 64.4 nM for the first, 24.6 nM for the second. The second binds more tightly here.

Same assay, conditions: FP: 20 mM Tris-HCl pH 7.5, 250 mM NaCl, 5 mM MgCl2, 5 nM oligo, 37 C, 30 min; EMSA: 20 mM Tris-HCl pH 8.0, 150 mM NaCl, 2 mM DTT, 5 mM MgCl2, 1 uM oligo, 1-3 uM

Compared with “UGAGGUAGUAGGUUGUAUAGU [5'OH-RNA (5'U) 21-nt guide]”, “TGAGGTAGTAGGTTGTATAGT [5'OH-DNA (5'T) 21-nt guide]” is 4.4-fold lower in Kd: 86.5 nM for the first, 19.7 nM for the second.

First: CGAGGUAGUAGGUUGUAUAGU [5'OH-RNA (5'C) 21-nt guide]
Second: GGAGGUAGUAGGUUGUAUAGU [5'OH-RNA (5'G) 21-nt guide]
The Kd of the first is 1.8-fold higher: 152 nM for the first, 86.7 nM for the second.

“AGAGGUAGUAGGUUGUAUAGU [5'OH-RNA (5'A) 21-nt guide]” showed a Kd of 88.4 nM.
